The text below walks through data of patent US10739331B2, “OMA1 activity assay” (BioVentures, LLC, priority 2017, dated 2020).

Entries after “also recorded” stand apart in the source; their conditions may differ. Non-standard residues stand in square brackets, D forms with d. Residues, ends and D or L forms follow the SMILES beside them. No end group written: not given here. *: point of attachment. Sta = CC(C)C[C@H](N)[C@@H](O)CC(=O)O; Mca = COc1ccc2c(CC(=O)*)cc(=O)oc2c1; DNP = 2,4-Dinitrophenyl, quencher; Isovaleryl = CC(C)CC(=O)*

Experiment [1] has as its target T1, OMA1 (Homo sapiens, UniProt Q96E52).
T1 sequence (Q96E52 144-524): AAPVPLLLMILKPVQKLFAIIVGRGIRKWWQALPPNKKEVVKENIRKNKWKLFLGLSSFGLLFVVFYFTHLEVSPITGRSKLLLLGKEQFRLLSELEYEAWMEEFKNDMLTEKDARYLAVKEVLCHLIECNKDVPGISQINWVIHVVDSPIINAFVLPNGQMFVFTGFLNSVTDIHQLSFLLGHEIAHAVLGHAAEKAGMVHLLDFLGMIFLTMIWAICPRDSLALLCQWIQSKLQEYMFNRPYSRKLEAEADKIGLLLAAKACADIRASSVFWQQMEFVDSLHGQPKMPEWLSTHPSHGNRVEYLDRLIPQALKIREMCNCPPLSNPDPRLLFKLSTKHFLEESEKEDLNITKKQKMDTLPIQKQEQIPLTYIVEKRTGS
To be noted: prior studies (refs 12, 24); cited from earlier work.

In experiment [2] the target is T2, OMA1 (Rattus norvegicus, UniProt D3ZS74).
T2 construct: Renal cell lysates from normal rat kidney (NRK) epithelial cell line were prepared; endogenous in cells; host or cells: NRK-52E (ATCC CRL-1571), RIPA lysate, 5 µg protein per well
T2 sequence (D3ZS74 123-504): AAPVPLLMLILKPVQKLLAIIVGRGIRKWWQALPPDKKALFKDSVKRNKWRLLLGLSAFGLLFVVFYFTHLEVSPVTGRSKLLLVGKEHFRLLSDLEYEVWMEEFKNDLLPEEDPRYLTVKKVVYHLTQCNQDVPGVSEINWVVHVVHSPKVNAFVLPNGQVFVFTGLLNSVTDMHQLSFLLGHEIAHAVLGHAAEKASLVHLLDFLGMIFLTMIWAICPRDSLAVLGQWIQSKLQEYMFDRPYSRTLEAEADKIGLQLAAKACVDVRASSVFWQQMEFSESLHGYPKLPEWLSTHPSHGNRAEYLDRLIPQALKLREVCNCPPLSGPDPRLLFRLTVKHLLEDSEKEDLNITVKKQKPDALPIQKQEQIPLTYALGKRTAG
Description: OMA1 activity assay (OPA1 FRET substrate) in NRK cell lysates. Type of experiment: biochemical. The note with it: for decrease of OMA1 activity compared to the standard substrate sequence: modified 8-mer FRET substrate vs AFRATDHG
The protocol: Normal rat kidney cells (NRK-52E; ATCC No. CRL-1571) were maintained in a humidified incubator with 5% CO2, 95% air at 37° C. in DMEM containing 5% fetal bovine serum. Renal cell lysates from normal rat kidney (NRK) epithelial cell line were prepared by using radioimmunoprecipitation assay (RIPA) buffer (Pierce) with 1 mM PMSF (Sigma), 1.2 mM Na3VO4 (Sigma), 2.5 mM NaF (Sigma), 1 mM DTT (Sigma), 1× of Halt Protease & Phosphatase inhibitor cocktail (Thermo Scientific), and 5 mM EDTA (Thermo Scientific). Protein concentrations were determined by Coomassie Plus Protein Assay Reagent (Pierce).
Our OMA1 activity assay utilizes an 8-mer peptide derived from the cleavage sequence of OPA1, which is reported to be specific of OMA1 which is referred as the OPA1 FRET substrate. The peptide contains a fluorogenic MCA moiety on the N-terminus and a DNP quencher moiety on the C-terminus (FIG. 1), which was custom-synthesized by LifeTein LLC and handled accordingly to the manufacturer's instructions. Using a final 100 μl reaction volume and black, opaque 96 well plates (Costar), the reagents were added in the following order: 1) OMA1 activity assay buffer (50 mM of Tris/HCl, pH=7.5, 40 mM of KCl), 2) 5 μg of protein sample, 3)+/−200 μM of the zinc chelator N,N,N′,N′-Tetrakis (2-pyridylmethyl)ethylenediamine (TPEN) resuspended in 100% ethanol and lastly, 4) the OPA1 FRET substrate (5 μM final concentration; dissolved in DMSO). Fluorescence was recorded (excitation/emission of 320/405 nm) once per minute for 30 min at 37° C. using a fluorescent plate reader (SpectraMax M2e, Molecular Devices equipped with SoftMax Pro v5 software).
For the statistical analysis, the average fluorescence of the OPA1 FRET substrate alone was measured (<150 relative FLS units) and that value was subtracted from the sample values. The values were reported as a difference of TPEN inhibition [(sample X)−(sample X+TPEN)] where the slopes between 0-30 min were calculated (by linear regression) and each treatment were compared to appropriate controls. Thus, OMA1 activity was calculated by […] to enhance specificity.

In experiment [3] the target is T2, OMA1. Briefly: OMA1 activity assay in rat renal mitochondrial lysates after cold storage / transplantation. Type of experiment: biochemical. To be noted: cold storage alone or followed by transplant. The source says:
Long-term renal function is compromised in patients receiving deceased donor kidneys which require cold storage exposure prior to transplantation. It is established that extended cold storage plus transplantation of kidneys induces renal mitochondrial dysfunction. To assay OMA1 activity under stress conditions known to induce mitochondrial dysfunction an exemplary reporter molecule of the invention was employed in mitochondrial lysates from control kidneys (CTRL), sham surgery (SH), cold storage alone (CS), or cold storage and transplantation (CS/TX) conditions.
Our OMA1 activity assay utilizes an 8-mer peptide derived from the cleavage sequence of OPA1, which is reported to be specific of OMA1 which is referred as the OPA1 FRET substrate. The peptide contains a fluorogenic MCA moiety on the N-terminus and a DNP quencher moiety on the C-terminus (FIG. 1), which was custom-synthesized by LifeTein LLC and handled accordingly to the manufacturer's instructions. […] Fluorescence was recorded (excitation/emission of 320/405 nm) once per minute for 30 min at 37° C. using a fluorescent plate reader (SpectraMax M2e, Molecular Devices equipped with SoftMax Pro v5 software).

Experiment [4] relates to OMA1. Description: Live-cell OMA1 activity assay with mitochondrial targeted FRET peptide. Type of experiment: cell-based, rat. To be noted: NRK-52E cells, FRET peptide 10 μM, 4 hr, antimycin A 50 nM, 30 min, preliminary. From the text:
Live-Cell OMA1 activity assay: To deliver the FRET OMA1 peptide to mitochondria in living cells, we utilized a modified short Szeto-Schiller (SS) peptide sequence1 attached to the amino terminus of the 8 amino acid FRET sequence (custom synthesized by LifeTein) (FIG. 5A). […] Small molecule/peptide library subsets or novel peptides will be screened for inhibitory activity using this live-cell OMA1 assay.
Live-cell OMA1 activity assay preliminary results: To deliver the FRET peptide to mitochondria in living cells, we have used a modified short Szeto-Schiller (SS) mitochondrial targeting peptide sequence1 (d-arginine, dimethyl tyrosine, ornithine, tryptophan) attached to the amino terminus of the eight amino acid FRET sequence (FIG. 5A). Normal rat kidney (NRK-52E; ATCC No. CRL-1571) cells were plated on black 96-well cell culture plates (10,000 cells/well). The next day, the cell permeable peptide was added to cells (10 μM; 4 hr; 37° C.) followed by exposure to ATP depletion/antimycin A (50 nM; 30 min) and OMA1 activity measured (ex/em 320/405) using a plate reader. […] Future studies will optimize the mitochondrial targeting sequence so that the highest efficiency of mitochondrial localaization without altering mitochondrial oxidant levels will be achieved, which we predict will yield the highest sensitivity for the live-cell OMA1 activity assay.

Experiment [5] deals with T2, OMA1. Briefly: OMA1 activity assay (OPA1 FRET substrate) in NRK cell lysates. Type of experiment: biochemical. To be noted: untreated NRK cell lysates (5 μg), substrate 1-30 μM, Michaelis-Menten.
[6] abbreviates: Table 2, slope over 30 min, % comparison to AFRATDHG, 2-3 experiments/substrate.
Setting [7] is: Table 1, average slope over 30 min compared to AFRATDHG substrate, n = 3.

For the compound `CCOC(=O)[C@H]1O[C@@H]1C(=O)N[C@@H](CC(C)C)C(=O)NCCC(C)C` [E64D], the “prevention of OMA1-dependent OPA1 cleavage” value (“prevention” for short) on OMA1 [1] is given as “do not prevent OMA1-dependent OPA1 cleavage”.

`c1ccc(CN(CCN(Cc2ccccn2)Cc2ccccn2)Cc2ccccn2)nc1` [TPEN, N,N,N′,N′-Tetrakis (2-pyridylmethyl)ethylenediamine]: at OMA1 [2] (NRK cell lysates with TPEN (200 μM in method) vs untreated lysates), the “effect on OMA1 activity (slope, FLS/min)” value is recorded as “reduced OMA1 activity; also recorded: dramatically decreased fluorescence”. In addition, the “effect on reporter fluorescence (FLS) increase” value at OMA1 [3] is on record as “effectively inhibits FLS increase; also recorded: effectively inhibits the reporter molecule activation”.

As to “AARAAAAA (Mca-AARAAAAA; not fully specified (C-terminus); also: FRET fluorophore and quencher, sites not given here) [FRET substrate with RA motif flanked by alanine residues]”, in the experiment with OMA1 [2] (setting [6]), the “OMA1 Activity” value turned out to be 35%. For the same compound, in the experiment with OMA1 [2], the “decrease of OMA1 activity compared to the standard substrate sequence” value worked out at 65%.

Take antimycin A: the entries for the “OMA1 activity (fluorescence) in live cells” value in the experiment on OMA1 [4] and with OMA1 [4] (listed as AMA) were “increased OMA1 activity” and “induces OMA1 activity”, respectively.

As for `CC(C)CC(=O)N[C@H](C(=O)N[C@H](C(=O)N[C@@H](CC(C)C)[C@@H](O)CC(=O)N[C@@H](C)C(=O)N[C@@H](CC(C)C)[C@@H](O)CC(=O)O)C(C)C)C(C)C` [pepstatin A] (Isovaleryl-VV[Sta]A[Sta]-OH), the “prevention” value on OMA1 [1] is recorded as “do not prevent OMA1-dependent OPA1 cleavage”.

Regarding pefabloc/TPCK, at OMA1 [1], the “prevention” value is recorded as “do not prevent OMA1-dependent OPA1 cleavage”.

Consider `CCCCC[C@H](CC(=O)NO)C(=O)N[C@H](C(=O)N1CCC[C@H]1CO)C(C)C` [actinonin], for which the “effect on OMA1 activity (slope, FLS/min)” value is listed as “neither the broad-spectrum MMP inhibitor, batimastat (0.5-1 μM), or the meprin A inhibitor, actinonin (0.5-1 μM), altered OMA1 activity” on OMA1 [2] (NRK cell lysates, 0.5-1 μM, vs untreated lysates) and “Only TPEN reduced OMA1 activity” on OMA1 [2] (NRK cell lysates, 0.5-1 μM, vs untreated lysates, listed as Actinonin).

For the compound “AFRATDHG (Mca-AFRATDHG-{DNP}) [MCA-AFRATDHG-DNP, eight amino acid OPA1 S1-site peptide with MCA fluorophore on the N-terminus and DNP quencher on the C-terminus]”, the “OMA1 Activity” value in the experiment with OMA1 [2] (setting [7]) and in the experiment with OMA1 [2] (setting [6]) was 100% throughout. Also, the “Vmax for cleavage of the OPA1 FRET substrate” value with OMA1 [5] is 34.6 FLS/min. For the same compound, the Michaelis constant (Km) (usually the substrate concentration at which the rate is half of its maximum) with OMA1 [5] (read-out: Km for cleavage of the OPA1 FRET substrate) is 7.1 µM.

With “ATDHGSES (Mca-ATDHGSES; not fully specified (C-terminus); also: FRET fluorophore and quencher) [eight amino acid FRET peptide from OPA1 downstream of the cleavage site, no RA motif]”, in the experiment with OMA1 [2] (FRET peptide downstream of cleavage site), the “fluorescence of FRET peptide without R-A sequence” value is given as “abolished fluorescence”. Also, the “OMA1 Activity” value with OMA1 [2] (setting [7]) and in the experiment with OMA1 [2] (setting [6]) was 2.71% in each case.

Turning to “AFKATDHG (Mca-AFKATDHG; not fully specified (C-terminus); also: FRET fluorophore and quencher) [FRET substrate with Arg changed to Lys]”, the “OMA1 Activity” value in the experiment with OMA1 [2] (setting [6]) was found to be 61%. The “decrease of OMA1 activity compared to the standard substrate sequence” value with OMA1 [2] was around 40%.
